In patent US20090252727A1 (Eli Lilly, published 2009):
Residue numbers refer to the chain shown, from its start.

T1: mouse glucagon receptor (mouse, UniProt Q61606 28-485)
T1 construct: Cloned receptor expressed in 293HEK cells; also called murine GluR; mouse GlucR
T1 chain: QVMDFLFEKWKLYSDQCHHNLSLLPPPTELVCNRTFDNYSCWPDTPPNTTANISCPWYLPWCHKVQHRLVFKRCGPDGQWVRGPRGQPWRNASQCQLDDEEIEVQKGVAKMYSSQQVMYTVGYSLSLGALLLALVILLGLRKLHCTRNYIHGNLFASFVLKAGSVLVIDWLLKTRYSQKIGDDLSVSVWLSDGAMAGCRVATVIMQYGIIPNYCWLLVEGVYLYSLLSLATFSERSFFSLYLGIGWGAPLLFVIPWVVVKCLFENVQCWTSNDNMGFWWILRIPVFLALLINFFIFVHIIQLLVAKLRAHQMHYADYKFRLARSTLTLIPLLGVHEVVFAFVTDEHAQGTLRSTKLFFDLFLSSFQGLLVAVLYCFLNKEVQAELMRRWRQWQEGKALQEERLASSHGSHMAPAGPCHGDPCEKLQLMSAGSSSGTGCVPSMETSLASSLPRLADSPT

T2: cynomologous monkey glucagon receptor (cynomologous monkey, UniProt P47871 27-477 (human entry))
T2 construct: Cloned receptor expressed in 293HEK cells; also called cyno GluR; cyno GlucR
T2 chain: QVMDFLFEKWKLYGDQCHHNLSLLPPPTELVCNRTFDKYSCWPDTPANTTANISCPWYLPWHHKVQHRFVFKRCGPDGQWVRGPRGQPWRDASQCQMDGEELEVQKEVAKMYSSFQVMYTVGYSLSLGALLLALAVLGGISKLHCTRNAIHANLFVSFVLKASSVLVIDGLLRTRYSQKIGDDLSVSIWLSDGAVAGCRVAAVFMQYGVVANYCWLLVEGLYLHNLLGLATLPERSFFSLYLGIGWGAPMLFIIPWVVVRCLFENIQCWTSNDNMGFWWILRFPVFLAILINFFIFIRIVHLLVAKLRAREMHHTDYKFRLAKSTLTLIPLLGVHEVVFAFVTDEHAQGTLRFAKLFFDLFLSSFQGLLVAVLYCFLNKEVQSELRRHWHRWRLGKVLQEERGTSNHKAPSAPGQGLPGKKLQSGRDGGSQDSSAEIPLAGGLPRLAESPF

B1: Fab fragment of antibody example 4 (Fab4) (Fab, V domains shown)
VH: QVQLQESGPGLVKPSETLSLTCTVSGDDITSGYHDWIRQPPGKGLEWIGYISYSGSTYYSPSLKSRVTISVDTSKNQFSLKLSSVTAADTAVYYCARPPGYYGFGPYALDYWGQGTLVTVSS
VL: DIQMTQSPSSLSASVGDRVTITCSASSSVSYIHWYQQKPGKAPKLLIYTTSYLAHGVPSRFSGSGSGTDFTLTISSLQPEDFATYYCQQRSTLPPTFGGGTKVEIKR
notes: Expressed in E. coli; Fab = VL+CL and VH+CH1 (Fc absent); not shown: His tag
B2: Antibody of example 4 (Ab4) (antibody, human IgG4 S228P, kappa, F234A L235A, V domains shown)
VH: B1 VH
VL: B1 VL
notes: Humanized full antibody with kappa light chain and modified human IgG4 Fc
B3: Antibody of example 1 (Ab1) (antibody, human IgG4 S228P, kappa, F234A L235A, V domains shown)
VH: B1 VH with H34W
VL: B1 VL with I32M, Y52N, Q89W
notes: as for B2
B4: Fab fragment of antibody example 5 (Fab, V domains shown)
VH: B1 VH with Y58Q
VL: B1 VL
notes: Expressed in E. coli; Fab = VL+CL and VH+CH1 (Fc absent); also called Fab of Ab5; not shown: His tag
B5: Antibody of example 7 (Ab7) (antibody, human IgG4 S228P, kappa, F234A L235A, V domains shown)
VH: B1 VH with D35E, Y58S, G100A
VL: B1 VL
notes: as for B2
B6: Antibody of example 6 (Ab6) (antibody, human IgG4 S228P, kappa, F234A L235A, V domains shown)
VH: B1 VH with G100A
VL: B1 VL
notes: as for B2
B7: Fab fragment of antibody example 2 (Fab, V domains shown)
VH: B1 VH with H34W, D35N, S60I, L109M
VL: B1 VL with A25Y, I32M, Y52N
notes: Expressed in E. coli; Fab = VL+CL and VH+CH1 (Fc absent); also called Fab of Ab2; not shown: His tag
B8: Fab fragment of antibody example 7 (Fab, V domains shown)
VH: B1 VH with D35E, Y58S, G100A
VL: B1 VL
notes: Expressed in E. coli; Fab = VL+CL and VH+CH1 (Fc absent); also called Fab of Ab7; not shown: His tag
B9: Fab fragment of antibody example 6 (Fab, V domains shown)
VH: B1 VH with G100A
VL: B1 VL
notes: Expressed in E. coli; Fab = VL+CL and VH+CH1 (Fc absent); also called Fab of Ab6; not shown: His tag
B10: Fab fragment of antibody example 3 (Fab, V domains shown)
VH: B1 VH with H34W
VL: B1 VL with Q88L
notes: Expressed in E. coli; Fab = VL+CL and VH+CH1 (Fc absent); also called Fab of Ab3; not shown: His tag
B11: Antibody of example 5 (Ab5) (antibody, human IgG4 S228P, kappa, F234A L235A, V domains shown)
VH: B1 VH with Y58Q
VL: B1 VL
notes: as for B2
B12: Antibody of example 3 (Ab3) (antibody, human IgG4 S228P, kappa, F234A L235A, V domains shown)
VH: B1 VH with H34W
VL: B1 VL with Q88L
notes: as for B2
B13: Fab fragment of antibody example 1 (Fab, V domains shown)
VH: B1 VH with H34W
VL: B1 VL with I32M, Y52N, Q89W
notes: Expressed in E. coli; Fab = VL+CL and VH+CH1 (Fc absent); also called Fab of Ab1; not shown: His tag
B14: Antibody of example 2 (Ab2) (antibody, human IgG4 S228P, kappa, F234A L235A, V domains shown)
VH: B1 VH with H34W, D35N, S60I, L109M
VL: B1 VL with A25Y, I32M, Y52N
notes: as for B2

Molecular target: T1, mouse glucagon receptor
Assay: competition with [125I]glucagon, SPA, membranes of 293HEK cells expressing the receptor
Description: (§1) A competitive receptor/ligand binding experiment is adapted to a scintillation proximity assay (SPA) format. Incubations are performed in clear bottom, opaque 96-well microplates. Compound is serially diluted 3-fold in binding buffer consisting of 25 mM Hepes, pH 7.4, 2.5 mM CaCl₂, 1 mM MgCl₂, 0.1% fatty acid free BSA, 0.003% tween-20 and Complete^R EDTA-free protease inhibitor tablets. […] Plates are sealed with adhesive sealing tape, mixed end over end, and incubated at room temperature for 12 hours. The radioactivity bound to the receptor (in close proximity to the WGA SPA bead) is quantified on a PE Life and Analytical Sciences Trilux Microbeta plate scintillation counter and expressed as counts per minute (CPM).
Binder B1 has a Ki of 2.43 nM. With B2 the Ki was 0.83 nM.

These binders were tested against T3, human glucagon receptor (human, UniProt P47871 27-477) in the same assay as above.
T3 construct: Cloned receptor expressed in 293HEK cells; also called human GluR; human GlucR
Description: as §1
With B1 the Ki was 2.9 nM. In the case of B2, the Ki is reported as 1.34 nM.

Molecular target: T2, cynomologous monkey glucagon receptor
Assay: as above
Description: as §1
B1 was tested, and the Ki was 9.42 nM. B2 showed a Ki of 6 nM.

What follows are binders tested against T4, rat glucagon receptor (rat, UniProt P30082 28-485) in the same assay as above.
T4 construct: Cloned receptor expressed in 293HEK cells; also called rat GluR; rat GlucR
Description: as §1
B1 showed a Ki of 3.3 nM. In the case of B2, the Ki is reported as 1.24 nM.

Molecular target: T1, mouse glucagon receptor
Assay: as above
Remark: another data set of the same source
With B1 the Ki was less than 50 nM. B2 gave a Ki of less than 50 nM. B3 gave a Ki of less than 50 nM. B4 was tested, and the Ki was less than 50 nM. Binder B5 has a Ki of less than 50 nM. For B6, the Ki was less than 50 nM. Work on B7 yielded a Ki of less than 50 nM. For B8, the Ki was less than 50 nM. For B9, the Ki was less than 50 nM. In the case of B10, the Ki is reported as less than 50 nM. With B11 the Ki was less than 50 nM. With B12 the Ki was less than 50 nM. B13 showed a Ki of less than 50 nM. In the case of B14, the Ki is reported as less than 50 nM.

Molecular target: T3, human glucagon receptor
Assay: as above
Remark: another data set of the same source
Work on B1 yielded a Ki of less than 50 nM. B2 showed a Ki of less than 50 nM. With B3 the Ki was less than 50 nM. In the case of B4, the Ki is reported as less than 50 nM. Work on B5 yielded a Ki of less than 50 nM. B6 showed a Ki of less than 50 nM. With B7 the Ki was less than 50 nM. Binder B8 has a Ki of less than 50 nM. B9 was tested, and the Ki was less than 50 nM. Binder B10 has a Ki of less than 50 nM. B11 showed a Ki of less than 50 nM. B12 gave a Ki of less than 50 nM. In the case of B13, the Ki is reported as less than 50 nM. B14 gave a Ki of less than 50 nM.

Molecular target: T2, cynomologous monkey glucagon receptor
Assay: as above
Remark: another data set of the same source
For B1, the Ki was less than 50 nM. B2 was tested, and the Ki was less than 50 nM. In the case of B3, the Ki is reported as less than 50 nM. Binder B4 has a Ki of less than 50 nM. Binder B5 has a Ki of less than 50 nM. For B6, the Ki was less than 50 nM. B7 was tested, and the Ki was less than 50 nM. B8 was tested, and the Ki was less than 50 nM. Work on B9 yielded a Ki of less than 50 nM. In the case of B10, the Ki is reported as less than 50 nM. In the case of B11, the Ki is reported as less than 50 nM. Work on B12 yielded a Ki of less than 50 nM. For B13, the Ki was less than 50 nM. Binder B14 has a Ki of less than 50 nM.

Molecular target: T4, rat glucagon receptor
Assay: as above
Remark: another data set of the same source
With B1 the Ki was less than 50 nM. B2 showed a Ki of less than 50 nM. B3 showed a Ki of less than 50 nM. For B4, the Ki was less than 50 nM. Work on B5 yielded a Ki of less than 50 nM. With B6 the Ki was less than 50 nM. B7 gave a Ki of less than 50 nM. In the case of B8, the Ki is reported as less than 50 nM. In the case of B9, the Ki is reported as less than 50 nM. For B10, the Ki was less than 50 nM. Binder B11 has a Ki of less than 50 nM. With B12 the Ki was less than 50 nM. With B13 the Ki was less than 50 nM. B14 showed a Ki of less than 50 nM.
